# Assay results reported in US9814672B2, “Echogenic vehicle for clinical delivery of plasminogen activator and other fibrin-binding therapeutics to thrombi” (priority 2007, dated 2017).
# Experiments:
# fibrin = biological target: T1, fibrin (Homo sapiens, UniProt P02671+P02675+P02679); settings: SOFIA-tPA assay; read-out: KD of tPA-fibrin binding reported by Angles-Cano (1986); cited from earlier work
# T1 construct: were incubated on replicate fibrin pads, prepared in microplate wells; purchased Calbiochem (EMD Biosciences, Inc., La Jolla, Calif.)
# T1 sequence (P02671 36-629 limits assumed): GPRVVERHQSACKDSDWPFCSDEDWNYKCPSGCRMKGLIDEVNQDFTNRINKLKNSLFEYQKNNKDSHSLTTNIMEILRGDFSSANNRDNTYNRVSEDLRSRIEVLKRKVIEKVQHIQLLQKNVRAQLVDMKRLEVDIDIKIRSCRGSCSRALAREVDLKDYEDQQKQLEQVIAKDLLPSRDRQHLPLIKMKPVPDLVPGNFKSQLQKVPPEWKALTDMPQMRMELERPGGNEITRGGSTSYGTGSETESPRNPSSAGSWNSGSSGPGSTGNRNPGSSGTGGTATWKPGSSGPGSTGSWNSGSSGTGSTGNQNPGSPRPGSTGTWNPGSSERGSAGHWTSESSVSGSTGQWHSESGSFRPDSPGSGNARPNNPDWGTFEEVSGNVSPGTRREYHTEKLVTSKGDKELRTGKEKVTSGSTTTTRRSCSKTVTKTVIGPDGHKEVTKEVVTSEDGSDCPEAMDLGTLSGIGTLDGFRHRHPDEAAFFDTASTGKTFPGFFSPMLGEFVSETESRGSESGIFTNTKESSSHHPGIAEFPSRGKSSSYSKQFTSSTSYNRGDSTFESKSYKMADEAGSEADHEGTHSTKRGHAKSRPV
# T1 sequence (P02675 45-491 limits assumed): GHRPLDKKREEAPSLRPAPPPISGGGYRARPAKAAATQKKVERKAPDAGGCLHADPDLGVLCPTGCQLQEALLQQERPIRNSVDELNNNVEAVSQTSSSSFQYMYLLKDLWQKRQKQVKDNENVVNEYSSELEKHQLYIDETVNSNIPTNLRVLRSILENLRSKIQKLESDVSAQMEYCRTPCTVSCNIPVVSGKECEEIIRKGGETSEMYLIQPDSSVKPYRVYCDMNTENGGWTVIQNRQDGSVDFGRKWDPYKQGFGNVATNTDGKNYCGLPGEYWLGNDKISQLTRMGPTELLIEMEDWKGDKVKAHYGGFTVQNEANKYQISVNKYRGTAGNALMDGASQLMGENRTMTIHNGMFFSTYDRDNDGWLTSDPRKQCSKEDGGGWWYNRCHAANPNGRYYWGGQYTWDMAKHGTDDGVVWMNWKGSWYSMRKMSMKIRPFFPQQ
# T1 sequence (P02679 27-437 isoform P02679-2 limits assumed): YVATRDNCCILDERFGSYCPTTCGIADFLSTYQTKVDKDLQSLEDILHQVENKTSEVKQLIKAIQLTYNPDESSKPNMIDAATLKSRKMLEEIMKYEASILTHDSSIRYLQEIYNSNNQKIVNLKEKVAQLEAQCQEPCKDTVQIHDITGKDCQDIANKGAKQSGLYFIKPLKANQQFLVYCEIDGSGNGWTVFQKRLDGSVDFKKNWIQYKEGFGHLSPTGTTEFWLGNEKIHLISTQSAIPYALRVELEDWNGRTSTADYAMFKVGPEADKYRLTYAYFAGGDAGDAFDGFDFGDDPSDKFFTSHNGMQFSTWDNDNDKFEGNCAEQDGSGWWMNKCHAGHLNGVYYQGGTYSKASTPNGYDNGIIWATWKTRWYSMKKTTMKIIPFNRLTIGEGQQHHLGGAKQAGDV
# [1] = tested on: whole porcine blood clots; assay: In vitro thrombolysis, percent clot mass loss; settings: 1 MHz CW, 2 W/cm^2, 2 min vs. no ultrasound
# Protocol: Whole porcine blood clots were used to evaluate thrombolysis. Blood was obtained from non-heparinized Yucatan miniswine. The miniswine were 6-8 weeks old and weighed 28.5±6.5 lb. Baseline blood analysis data, including complete blood count, prothrombin time, activated partial thromboplastin time, D-dimer, and fibrinogen were obtained to ensure normal clotting parameters. Whole blood clots were made by aliquoting 1.5 ml fresh porcine blood into 1.3-cm inner diameter vacutainer tubes; the tubes were incubated in a 37° C. water bath for 3 h. The clots were then stored at 4° C. until use, which ensured complete clot maturation and retraction. This type of clot is fairly similar to physiologic venous clots. Most miniswine used in this study were slightly anemic (hematocrit of 27.8±3.0%). Only donors with values of <250 ng/ml for the D-dimer test, <15 s for prothrombin time, <18 s for activated partial thromboplastin time, and <300 mg/dl fibrinogen concentration were considered acceptable. The resulting clots were dark red, cylindrical, and weighed 0.47±0.11 g. All unused clots were discarded after 2 weeks.
# Whole porcine blood clots were blotted gently and weighed using an analytical balance. […]
# Porcine clots were treated with 1 MHz continuous wave (CW) ultrasound with an intensity of 2 W/cm^2, for 2 min (Sonitron 1000; Rich-Mar). The calculated peak negative acoustic pressure output was 0.12 MPa. […]
substance,measurement,setting,value
"tPA: Recombinant tissue-plasminogen activator (Activase®, Genentech Inc.), used as the thrombolytic agent [reference compound]",Kd,fibrin,1.4 ± 2 nM
same,effect of ultrasound exposure on thrombolysis,[1],no significant augmentation of thrombolysis
